# Results reported in patent US20140004536A1 (PERSEUS PROTEOMICS, published 2014).
# T1: human LY6D (human, UniProt Q14210 21-98, GPI anchor)
# T1 construct: whole, on cells; On living cells for FCM, cell ELISA and microscopy; Solubilised from biotinylated cells with surfactant (or released by PI-PLC) for immunoprecipitation and western blot; also called E48 antigen
# T1 sequence (looked up): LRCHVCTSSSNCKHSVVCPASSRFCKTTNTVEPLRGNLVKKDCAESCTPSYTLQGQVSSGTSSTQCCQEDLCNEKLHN
# Molecular target: T1, human LY6D
# Assay: confocal laser microscopy, cell ELISA and FCM on X-ray-irradiated MCF10A cells; the antigen is identified as LY6D later in the filing
# Procedure: X-ray-irradiated cells and non-irradiated cells were prepared, and antibodies specific to the irradiated cells were screened for by cell ELISA. That is, reactivity of antibody to both cells was examined by ELISA. A blocking solution (5% skim milk/0.05% NaN₃/PBS) was added at 200 μL/well to both cells, followed by blocking at 37° C. for 2 hours. The blocking solution was removed and the cells were washed with PBS. The supernatant of the above antibody expression culture was added at 100 μL/well, followed by reaction at 37° C. for 1 hour. The resultant was washed five times with PBS. Rabbit anti-cp3 (1 μg/mL) diluted with PBS/0.05% Tween 20 was added at 100 μL/well, followed by reaction at 37° C. for 1 hour. The resultant was washed five times with PBS. Anti-Rabbit IgG (H+L)-HRP diluted 2000-fold with PBS/0.05% Tween 20 was further added at 100 μL/well, followed by reaction at 37° C. for 1 hour. The resultant was washed five times with PBS. […] Then, the absorbance at 492 nm was measured by SPECTRAmax340PC (Molecular Devices). Antibodies showing obvious positive reactivity specific to only the irradiated cells were selected and DNA sequences of the phages were analyzed.
# Selection of clones from the antibody library was carried out as follows. […] The 20 candidates were analyzed by flow cytometry (FCM).
binder,measurement,value
"E33-139 monoclonal antibody (scFv, Human phage antibody from the AIMS5 library; No result is reported for the IgG; not shown: clones were tested as scFv-CL fused to cp3 or to the protein A domain (scFv-CL-P)) scFv: MAEVQLVESGGGLVQPGRSLRLSCAASGFTFDDYAMHWVRQAPGKGLEWVSGISWNSGSIGYADSVKGRFTISRDNAKNSLYLQMNSLRAEDTALYYCAKTGILDAFDIWGQGTTVTVSRGGGGSGGGGSGGGGSMAQSVLTQPPSVSGAPRQTVTISCSGSSSNIGQNSVTWYQRLPGEAPKLLIYYDDLLHSGVSDRFSGSKSGTSASLAISGLQSEDEAEYYCASWDDSLKGPVFGGGTKLTVLGQPKAAPSVTLFPPSSEELQANKATLVCLISDFYPGAVTVAWKADSSPVKAGVETTTPSKQSNNKYAASSYLSLTPEQWKSHKSYSCQVTHEGSTVEKTVAPTECSAR",binding result,binds
